B1: SLC2A12 (parent)
chain: TRIMIGLTLVFFVQITGQPNILFY
B2: ZNF193 (parent)
chain: QKRYHCKECGKVFSQSAGLIQHQR

Variants of: B1
Experiment: protein stability index of a GFP-peptide fusion (GPS, HEK-293T) (PSI 1-6); higher = more stable
Details: c terminus: a fixed tail appended
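Further: lentivirally expressed fusions sorted by FACS into six bins by GFP to DsRed ratio, PSI derived from sequencing read proportions per bin multiplied by bin number.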

Protein stability index: each site, then its substitutions
M4: Q 2.88, P 2.72, C 4.43, V 4.05, H 2.79, N 3.52, I 1.92, S 3.75, Y 2.6, A 3.65, D 3.33, R 3.83, W 3.96, G 2.99, T 2.73, L 2.64, F 2.29
V10: E 3.41, A 3.99, T 3.36, Y 2.56, K 3.44, P 2.51, R 2.5, D 1.78, C 2.69, W 2.58, L 2.4, N 3.65, G 3.27, H 3.39, F 3.06, M 3.53
T1: P 2.26, A 2.48, Y 5.08, W 3.23, I 3.72, S 3.37, Q 2.42, K 2.57, M 1.44, G 3.81
R2: S 2.95, Q 4, I 2.93, G 3.53, L 2.57, D 3.39, C 1.74, A 3.31, N 3.48, W 3.62, Y 2.27, T 2.27, M 4.67, K 2.82, H 2.17
G6: T 3.1, A 1.78, L 2.22, M 2.46, W 1.9, F 4.16, V 2.43, R 2.75, Q 2.82, H 2.34, C 2.87, E 3.67, Y 2.48, I 1.06, D 2.73, K 2.19
T8: M 3.52, L 3.33, I 2.72, D 2.01, N 3.93, G 2.77, S 2.71, Y 2.64, F 2.26, C 3.82, Q 2.43, V 3.33, H 4.12, P 4.51
F11: K 2.68, P 2.09, E 1.63, R 2.16, S 3.83, C 3.27, L 2.5, Q 3.49, D 2.15, T 3.22, G 2.78, N 2, Y 3.02, I 3.63
I3: P 2.49, F 2.81, C 2.21, H 2.87, A 2.59, G 2.12, R 2.86, T 1.84, L 2.85, Y 3.58, M 3.1, K 2.94, N 2.12, S 3.14
L9: Q 1.7, C 2.63, F 5.04, G 2.8, D 3.04, I 3.09, W 2.24, A 3.04, R 3.25, M 2.58, N 2.69
L7: F 2.41, V 2.5, H 3.31, Y 4.24, I 2.63, D 2.9, N 2.78, S 3.54, C 2.22, W 2.84, E 2.62, P 2.96, Q 1.72, R 2.42, A 3.65, K 1.8
V13: M 3.17, R 2.87, P 3.01, K 2.19, D 2.46, Q 2.33, L 2.69, I 3.48, H 3.1, N 3.86, G 3.16, S 2.7, E 2.15, A 3.24
I5: E 3.74, D 3.91, F 3.16, T 2.83, A 2.6, R 2.21, H 3.25, M 1.77, K 3.18, L 3.43, Q 3.43, Y 2.65, G 3.23, V 2.69
F12: H 3.17, Y 3.14, M 2.49, P 4.16, D 2.7, V 3.31, Q 3.16, S 3.48, W 2.48, N 3.88, K 2.95, E 2.77, L 3.53, I 2.79, A 4.95

Variants of: B2
Experiment: as above
Details: c terminus: a fixed tail appended

Protein stability index of substitutions, site by site:
Q21: E 3.7, G 2.67, N 3.02, D 3.82, R 2.69, M 2.55, V 2.37, Y 2.21, W 2.44, F 1.91, L 2.57, A 3.2, S 2.47, P 2.08, I 2.1, C 3.06, T 2.61, H 2.88, K 2.6
R24: Q 2.48, E 3.53, K 3.65, T 2.33, W 2.1, L 1.43, P 2.44, I 1.96, M 2.44, C 4.52, F 2, N 2, G 3.05, D 3.33, Y 2.5, V 2.28, A 2.83, S 2.43, H 3.44
A17: N 3.05, W 2.86, L 2.22, T 2.46, P 2.02, K 3.09, S 3.02, I 2.28, R 3.21, Q 2.76, Y 1.94, G 2.54, M 1.82, V 2.48, H 2.66
I20: Y 2.98, M 2.86, F 2.45, P 2.27, W 2.4, G 2.38, Q 2.83, A 3.06, E 2.91, D 3.02, S 2.69, V 3.22, H 3.31, C 3.95, T 3.09, N 2.5, K 3.26, L 3.08, R 3.5
H22: T 2.05, P 1.64, C 2.04, M 1.84, G 1.41, W 1.99, Q 2.1, V 1.33, K 2.14, A 1.16, F 2.66, R 1.62, E 1.59, D 2.1, I 1.73, S 1.9, Y 1.5, L 1.75, N 1.67
G18: S 2.22, T 2.65, A 3.12, W 1.68, P 2.29, D 4.32, Q 3.55, L 3.01, Y 2.31, E 4.13, C 2.7, I 2.4, H 2.84, R 2.86, M 2.06, F 2.26, K 2.8, N 2.32, V 2.09
Q23: A 2.5, E 2.55, T 2.51, K 3.36, R 2.85, C 2.81, P 1.74, D 2.29, Y 2.4, N 2.36, W 1.97, G 2.07, H 2.97, I 2.57, F 2.05, S 2.54, V 2.37, L 2.69, M 3.13
L19: D 2.35, W 2.41, K 2.34, M 2.35, C 3.12, I 2.2, N 2.56, E 2.31, H 2.58, T 1.94, Y 2.42, Q 2.45, S 1.97, G 2.37, V 2.12, A 2.45, F 2.43, P 2.54, R 2.55
